Laboratory results published in publication PMC8994484.

Molecular target: ofCP (Olindias formosa)
Assay: SEC

ofCP (natural protein)
stoichiometry N: 2
